Measurements published in IntAct's records for PubMed 21321230.

Key:
dcc_rat Dcc [1] = target: dcc_rat Dcc (UniProt Q63155)
dcc_rat Dcc [2] = target: dcc_rat Dcc (UniProt Q63155); remark: listed apart in the source

Sequence of UniProt Q63155 (Q63155 whole entry): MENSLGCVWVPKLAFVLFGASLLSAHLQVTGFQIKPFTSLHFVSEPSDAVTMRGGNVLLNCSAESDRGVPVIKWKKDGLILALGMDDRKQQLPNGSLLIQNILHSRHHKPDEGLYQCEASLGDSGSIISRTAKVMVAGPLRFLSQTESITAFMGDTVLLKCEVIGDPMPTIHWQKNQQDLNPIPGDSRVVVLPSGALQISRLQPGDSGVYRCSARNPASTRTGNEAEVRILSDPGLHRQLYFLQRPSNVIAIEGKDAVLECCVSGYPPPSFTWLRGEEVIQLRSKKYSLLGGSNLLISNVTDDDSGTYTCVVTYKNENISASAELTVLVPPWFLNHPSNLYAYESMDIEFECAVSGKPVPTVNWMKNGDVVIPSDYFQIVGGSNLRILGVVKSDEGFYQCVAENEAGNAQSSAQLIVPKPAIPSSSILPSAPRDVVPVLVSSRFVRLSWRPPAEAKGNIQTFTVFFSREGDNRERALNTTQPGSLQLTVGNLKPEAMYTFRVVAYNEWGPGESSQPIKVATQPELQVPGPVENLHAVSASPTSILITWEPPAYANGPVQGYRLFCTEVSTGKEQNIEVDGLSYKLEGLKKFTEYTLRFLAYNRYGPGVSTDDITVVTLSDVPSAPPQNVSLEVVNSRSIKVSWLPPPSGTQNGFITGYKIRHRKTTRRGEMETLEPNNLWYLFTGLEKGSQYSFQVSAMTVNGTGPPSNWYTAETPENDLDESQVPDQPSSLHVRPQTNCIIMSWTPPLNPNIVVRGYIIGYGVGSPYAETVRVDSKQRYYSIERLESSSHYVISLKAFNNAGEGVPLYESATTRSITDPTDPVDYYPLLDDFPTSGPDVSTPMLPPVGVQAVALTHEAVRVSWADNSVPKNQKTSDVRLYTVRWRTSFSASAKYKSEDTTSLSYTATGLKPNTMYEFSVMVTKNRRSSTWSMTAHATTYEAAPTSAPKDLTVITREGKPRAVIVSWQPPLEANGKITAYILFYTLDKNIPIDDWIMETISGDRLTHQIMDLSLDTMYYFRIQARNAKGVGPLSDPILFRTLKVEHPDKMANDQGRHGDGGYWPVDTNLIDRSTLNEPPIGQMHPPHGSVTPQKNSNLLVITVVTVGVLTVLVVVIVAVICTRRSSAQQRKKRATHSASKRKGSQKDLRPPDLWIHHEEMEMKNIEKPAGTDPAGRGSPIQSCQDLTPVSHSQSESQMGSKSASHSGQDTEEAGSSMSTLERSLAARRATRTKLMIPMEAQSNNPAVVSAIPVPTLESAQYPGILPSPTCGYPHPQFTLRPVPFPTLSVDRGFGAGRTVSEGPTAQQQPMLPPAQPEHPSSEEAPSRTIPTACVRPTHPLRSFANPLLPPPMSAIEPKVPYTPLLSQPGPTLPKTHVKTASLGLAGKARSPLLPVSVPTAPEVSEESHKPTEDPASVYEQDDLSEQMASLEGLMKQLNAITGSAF

| effect of a mutation on the interaction (dcc_rat Dcc [1]) | effect of a mutation on the interaction (dcc_rat Dcc [2]) | Substance |
| --- | --- | --- |
| disrupting interaction strength | – | Unconventional myosin-X (Homo sapiens), Q9HD67 I2037E |
| – | disrupting interaction strength | Unconventional myosin-X (Homo sapiens), Q9HD67 S1718A;H1719A |
| – | disrupting interaction strength | Unconventional myosin-X (Homo sapiens), Q9HD67 S1718A;H1719A;D1763A;E1769A;K1770A |
